Data taken from the DeepSol protein solubility set.

assay: soluble on expression in E. coli; label from the status in PepcDB or PDB records

Row | Sequence | soluble on expression in E. coli
1 | GSVTVPEVIASEVISYAQEENLLRKYGTVIRTAGDVKYPILVKKAEANVNKKERTTDITETAIQFDEILLDPAEFDALATVTKKLLKMSGVPVEDIVVEELKKAYVRKEINYMFNGDDAGNENPGALAKKAVAFEKPVDLTAAGAGQKLYDALIEFKNTPVTEVMKKGRFIINRAALTAIEKMKTDDGFPLLRPFTQAEGGIGYQLVGYPVDWTDAADKKGEPDTPVLYFGDFSAFKIQEVIGALEIQKLVEKFSGKNQVGFQIYNLLDGQLVYSPFEPAVYRYEITKPVGG | not soluble
2 | GMTTEVKQSPRERLLEAAAALTYRDGVGIGVEALCKAAGVSKRSMYQLFESKDELLAASLKERSAAFVAKALPPADDGRSPRERILYVFERVESQAGAPDFQGCRYLAVQIELKDQAHPASRVAYQIKADLMAFFRSEAERGGASDPDLLARQLILVFDGASARAGIGADNLTGLIVPTLTTLLDAADMH | soluble
3 | MNMTKNTMGTKLPRKLEQKMAVVGEQIKLARLRRNLSVAQVAERATCSPLTVSRIEKGAPTVAIGIYLRVLYALQLDDDILWLAKEDKLGKTLQDLSLKTRERASKKE | not soluble
4 | MGSDKIHHHHHHVDGSTMIARNDDTFLPLTPQRFYVHPAEKNQPKRTWVSNQNGFTAPIPSDGYRYLATPNVEVDKEGVYAESGFNEKNVAMSATESVYGNPAALAIDPLVQNGLAEDSLQTMVLPYINSARDGVRYLGQLIKQYGSPEGNGVLFSDHDEVWYMEIVTGHHWVAQRIPDDAYAITANQVAIQQVSFDDPDNFMFSDGIQDFVTENHLNPDQAGWNFRHIFGTDTEKDRHYNTPRVWFGQRYLNPEIEQDPQSSDLPFICRTSHKISVEDVEYILSSHYNETKYDPFGQGAEADRLKFRPISMNRTQNSHVLQLRNDVPADRSAIFWLCFGVPAFSPYVPFFANVTDTDPTYSDTPVRLDDQSAYWMYRKLSMIVESHYSHFIEQDTDYLTATKQQLRTHVAKTLADAAALTGDELTAYLTAQNHQIVAAMRQSTTQFTNELIEKGLTLSKLTFNMDKNL | not soluble
5 | MKFKRLRTSENKLYYKAMELYKISFPFHEQRKSSLQEEILKNKEYQFNLIYDKNQFVGIILCWETDDFIYVEHFCIFPEMRNNRYGQRALELLNKKGKTIILEIDLPIDEISIYRKAFYERVKYKTNNYEHIHP | not soluble
6 | GAMADRDRLRPPLDERSLRDQLIGAGSGWRQLDVVAQTGSTNADLLARAASGADIDGVVLIAEHQTAGRGRHGRGWAATARAQIILSVGVRVVDVPVQAWGWLSLAAGLAVLDSVAPLIAVPPAETGLKWPNDVLARGGKLAGILAEVAQPFVVLGVGLNVTQAPEEVDPDATSLLDLGVAAPDRNRIASRLLRELEARIIQWRNANPQLAADYRARSLTIGSRVRVELPGGQDVVGIARDIDDQGRLCLDVGGRTVVVSAGDVVHLR | soluble
7 | MGFGDIQTQPGTYSMHHMTTSTRITSRFLKNKTTNMKRLGVDPPCGVPEPKEDVLLAVSCDAFAFGQDDTNNDRITVEWTNTPDGAAKQFRREWF | not soluble
8 | STDVHRRFLQLLMTHGVLEEWDVKRLQTHCYKVHDRSATVDKLEDFINNINSVLESLYIEIKRGVTEDDGRPIYALVNLATTSISKMATDFAENELDLFRKALELIIDSETGFASSTNILNLVDQLKGKKMRKKEAEQVLQKFVQNKWLIEKEGEFTLHGRAILEMEQYIRETYPDAVKICNICHSLLIQGQSCETCGIRMHLPCVAKYFQSNAEPRCPHCNDYWPHEIPKVFDPEKERESGVLKSNKKSLRSRQH | soluble
9 | MSLKIAIVGSGNGAVTAAVDMVDKGHDVRLYCRNESISKFDVALEKGGFDFNNEGEEKFIEFTDISDDMEYVLDGADIVQVIIPSSFIEYYAKVMSKFVTNDHLIFFNIAASMGSIRFMNVLEDRHIDVHPHFAEANTLTYGTRVDFNNAKVDLSLNVRRVFFSTFDRSELNESYEKVSKIYDYLVKEESLLKTNLENGNPEVHPGPTLLNVGRIDYSEEFSLYKEGITKHTVRLLHAIEIERLNLGRKLGFELSTAKESRIQRGYLERKDEDEPLNRLFNTSPVFSQIPGPNHVENRYLTEDIAYGLVLWSSLGRVIDVPTPNIDAVIMIASTILERDFFEEGLTIEELGLDKLGLEEGHHHHHH | soluble
10 | MKHLTASEVRSTFINFFREKKEHTYVHSSSVIPHDDPTLLFANAGMNQFKPLFLGIADPNSDLAKLKRAVNTQKCIRAGGKHNDLDDVGKDVYHHTYFEMLGNWSFGDYFKKEIITWAWELLTTVYGIPAERLYVSVFGGDEANGVPADSEARDIWRSVGVPDERILNFGMKDNFWEMGDVGPCGPCSEIHYDRIGNRDASHLVNADDPMVVEIWNLVFIQFNREEGGVLKPLPAKHIDCGLGLERLIAVMQDKTSNYDTDIFQPIFEAIHKGSGVRAYTGFIGDEDKDGVDMAYRVVADHVRTLTIALSDGGRPDNSGRGYVLRRILRRGVRYASEKLNAQPGFFASLVPVVISILGETFPELSRDPVTVMDIINDEEKQFLKTLSRGRVLFQRAVQSLPEGTMTFPGDVSWRLYDTYGFPADLTQLMAEEKGLSVDNTAFEEARRKAIETSSAGTGKFRDTLDLDVHALAELQQKGVPTTDDSPKYAYTFTGEGSDAVYKFEPCVGKILAIRRDGKFVDQLAAGEEGAILLDRTNFYAEQGGQIYDVGVLTKVNDESNEFNVSNCQVRGGYIVLVGSAEGSFSVGDQVNERFDEDRKQLIMKNHTGTHVLNYALRKVLADSDQKGSLVAPDRMRFDFTNKAGMTVQQVKKAEEYAQQLIDTKGQVYAKNSPLGEAKKVKGLRAMFDETYPDPVRVVAVGTPVEQLLQNPDAEEGQNTTVEFCGGTHLQNVSHIGRIVIASEEAIAKGIRRIVALTGPEAERAIARADRLTARLEEESKHADKKDELLANKDKFKALQKKIQEIVDEANGAQLPYWRKDSIREKAKAIQKTLDGYTKAQQAAVAEKVLGEAKELAAVAEQPTVLVHVFAANANSKAIDNALKLLKDTKAVMAFSVNEDSGKVLCLAKVDKSLVSNGLKANEWVNEVCTVLGGKGGGKDANAQLTGENVDKLDAAVELAQKFALAAIN | soluble
11 | MTGYACNHPNIYQSCNCQSFCQPYTHPHEMYYHHGYGCNGHCLDHQESMCEEDDECGMKKRKKHRKKNKKKKNKKKFRFSDEEDDEEKVAHHKKKPIEEDDDEFPLPPNSEEVAEASKSSKKEEDWEDDDKWERKFVSQTTTPAPRQAASGGGLGGLGLGNGGLFGISSGVGVGIPGVGPIGVSSGLGIGK | not soluble
12 | MSLAVGKYTQLISDLLQSVSIVDALPRGAAQAGILCQDTKEVLESENTVLEIAIPRQDNLVIVGDIHGQFADMLSNVLSIQLNLNNTKATDGRGSPSTEIYKFLFLGDYVDRGPQSLEVITLLFALKVEYPEHIFLLRGNHEEAQTSRLYGFFQECKSKLEGTGDRGPASVDITSSTWLQYNTVFCWLPLAAVVACPSGMFFCTHGGLSPHTLSVPLLRSLRRNEYGMVDDFEDTFYTPTSRGGDDMLEGPGAKARLVIDGLLWSDPEDQVSGCQMNNRGCGFIFGPDVTRSFLDRNYSYGFPPSKRQLIGEMKPGMQFILRGHQCAREGYMWCHGGLVLTLFSAPNYCGMHGNKGAVALLRGQVQAGKDRVELEFNVYDTVVRGGSDNLVACLSPFAFAHYFSGDSEGHHHHHH | not soluble
13 | MKSIVEKLNLTKYQQLVILNRPQGEYLSEFASAAQQLPSEPVELIFAFVKTMAEFQEIVSMVIEGQHLVENGLLYVAYPKKGNKMYPTFVHRDEIFPTLQVNEADGYIKGSTLKFNRMVSLDETFTVVGMKNVLKKLAKNQTSSAVGDYVQYLPEIEALVQTEPAAAATFAALTPGYQKEWARYVFSAKRAETRKKRQTEMLVILKEGYKTKALYQQRKK | not soluble
14 | GTPEQLQAWRWEREIDERNRPLSDEELDAMFPEGYKVLPPPAGYVPI | soluble
15 | WYNFTKRAVKIVLIPVSWFMKAERFAKFENNISEKIDSFYEESVRMTKDWR | not soluble
16 | MVSFKRYELPPLPYNYNALEPYIIEEIMKLHHQKHHNTYVKGANAALEKIEKHLKGEIQIDVRAVMRDFSFNYAGHIMHTIFWPNMAPPGKGGGTPGGRVADLIEKQFGGFEKFKALFSAAAKTVEGVGWGVLAFDPLTEELRILQVEKHNVLMTAGLVPILVIDVWEHAYYLQYKNDRGSYVENWWNVVNWDDVEKRLEQALNNAKPLYLLPQ | soluble
